From the Human Domainome abundance scans (Beltran et al. 2025)

B1: Serine/threonine-protein kinase A-Raf, residues 21 to 89; numbered along this chain, P10398 (parent)
chain: VKVYLPNKQRTVVTVRDGMSVYDSLDKALKVRGLNQDCCVVYRLIKGRKTVTAWDTAIAPLDGEELIVE
B2: POU domain, class 2, transcription factor 1, residues 285 to 354; numbered along this chain, P14859 (parent)
chain: LEELEQFAKTFKQRRIKLGFTQGDVGLAMGKLYGNDFSQTTISRFEALNLSFKNMCKLKPLLEKWLNDAE

Variants of: B1
Experiment: abundance fitness (aPCA) (normalised: wild type 0, dead -1); higher = more abundant; growth selection in yeast, the domain comes from the species named
Conditions: Homo sapiens

Abundance fitness: each site, then its substitutions
V1: A -0.684, F -0.358, E -0.833, C -0.184, G -0.744

Variants of: B2
Experiment: as above
Conditions: Homo sapiens

Abundance fitness, by site and new letter:
K64: T -0.04, H -0.1, W -0.113, G -0.026, R -0.019, A -0.036, D -0.037, Q -0.011, N -0.022, E -0.02, C -0.143, Y -0.225, S 0.011, P -0.387
K53: C 0.015, M 0.078, S -0.006, P 0.007, N 0.063, R 0.015, D -0.029, Y -0.122, Q -0.019, H -0.024, G -0.017, E 0.039, I 0.089, F 0.041, A 0.049, L 0.008, V -0.048, T -0.028
E63: R -0.199, P -0.571, V -0.095, A 0.07, G -0.023, D -0.45, W -0.075, Q -0.07, N -0.199, M -0.031, K -0.126, T -0.1, I -0.22, S -0.082, L 0.024
M55: D -0.381, L -0.013, G -0.068, C -0.12, S -0.1, P -0.991, Q -0.034, H -0.247, V -0.167, I -0.086, Y -0.153, W -0.271, E -0.488, F -0.107, K -0.51, R -0.48
N67: S -0.054, D 0.024
D68: K -0.018, Q 0.001, P -0.419, A -0.024, S 0.026, H -0.012, R -0.022, G -0.011, W -0.086, F -0.011, T -0.048, V -0.047, C -0.106, N 0.006, M -0.034, Y -0.063
L66: Y -0.11, N -0.848, G -0.411, R -0.667, V -0.003, F -0.258, T -0.206, M 0.01, E -0.433, I -0.017, K -0.476, Q -0.279, H -0.474, D -0.854, S -0.167, A -0.037, C -0.071, W -0.355
L61: T -0.026, R 0.008, K -0.031, Q -0.053, M -0.053, I -0.097, S -0.078, N -0.017, C -0.188, P -0.006, D -0.075, V -0.008, W -0.038, G -0.09, H 0.016, F -0.005
N54: G -0.018, S 0.009, C 0.011, D 0.08, M -0.005, A 0.019, H 0.004, K 0.009, P -0.135, V 0.006, L -0.005, Y -0.01, I 0.054, T -0.008
S51: L -0.579, I -0.801, E 0.003, Y -0.496, K -0.023, F -0.807, W -0.982, G 0.028, T -0.035, Q -0.09, C -0.086, P 0.002, A -0.055, M -0.472, N -0.099, R -0.056, H -0.076
W65: F 0.009, G -0.555, K -0.961, A -0.432, I -0.633, H -0.5, N -1.05, Y -0.275, D -0.968, R -0.753, P -0.693, V -0.262, E -0.825, Q -0.594, T -0.294, M -0.22, S -0.728, C -0.35, L -0.305
E70: D -0.029, I -0.048, W 0.071, V -0.083, R -0.36, P -0.349, S 0.076, K 0.011, G -0.13
K57: Y 0.031, S -0.006, Q -0.018, C 0.005, M -0.063, L -0.005, H -0.069, P -0.451, D 0.04, A -0.031, R -0.047, E -0.004, G -0.082, W -0.042, F -0.027, I -0.058, V -0.024
F52: G -0.059, V 0.009, W -0.002, Q -0.059, D 0.007, A 0.017, M -0.026, E -0.035, S -0.017, T 0.02, P -0.324, K -0.024, R -0.001, C -0.037, I 0.013, L -0.005, N -0.039, Y 0.001, H 0.059
P60: T -0.08, V -0.141, S -0.029, N -0.094, D -0.042, L -0.074, F -0.114, A -0.066, H -0.094, Y -0.217, I -0.059, Q -0.094, C -0.051, M -0.065, R -0.107, K -0.072
K59: I -0.13, C -0.134, M -0.002, N -0.311, S -0.092, F -0.138, H -0.014, P -0.72, L -0.06, D -0.672, G -0.175, A -0.028, V -0.056, R -0.005, Y -0.072, Q -0.037, T -0.033, W -0.026
L62: E -0.914, D -0.354, Q -0.913, C -0.18, I -0.091, V -0.102, S -0.567, G -0.545, A -0.149, T -0.406, P -0.699, M -0.006, F -0.017, Y -0.069, K -0.937, W -1.08
C56: W -0.005, G -0.047, F 0.027, P -0.681, M 0.034, L -0.016, I -0.014, A -0.004, T 0.023, Q 0.063, S 0.032, Y 0.042, H -0.085, K -0.201, V -0.01
A69: Q 0.057, H -0.04, V 0.014, W -0.078, R 0.013, L -0.064, E 0.016, K 0.004, P -0.112, C -0.001, I -0.027, M 0.003, Y -0.038, N -0.04, S -0.004, T -0.012
N49: T 0.03, Y -0.063, V -0.052, W -0.218
L58: D -0.474, A -0.062, T -0.07, N -0.396, C -0.019, H -0.046, P -0.802, I -0.027, Y -0.115, E -0.526, V 0.005, Q -0.199, W 0.002, F -0.026, K -0.202, M 0.014, G -0.632, S -0.178
L50: A -0.121, Y -0.03, P -0.678, D -0.026, G -0.074, Q -0.207, S -0.151, M 0.038, R -0.738, N -0.385, W -0.148, T -0.073, E -0.041, I -0.135, C 0.007, V -0.1
